Measurements published in patent publication US20070071759A1.

Target: T1, NKG2D receptor on NK cells freshly isolated from C57BL6 or on KY-2 cells (murine NK cell line) (murine) (UniProt O54709)
T1 sequence (looked up): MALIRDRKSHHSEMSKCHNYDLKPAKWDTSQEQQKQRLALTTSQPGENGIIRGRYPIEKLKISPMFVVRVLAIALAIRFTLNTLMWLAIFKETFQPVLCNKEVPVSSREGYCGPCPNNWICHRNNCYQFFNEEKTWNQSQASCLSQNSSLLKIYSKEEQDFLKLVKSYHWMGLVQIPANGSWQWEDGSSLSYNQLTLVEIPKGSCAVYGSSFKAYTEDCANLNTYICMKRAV
Assay: cell-based or functional assay

redirected lysis of P815 or J774 cells by KY-2 cells: < 22%
Substance: anti-HER2 IgG3-CH3-Rae-1β fusion protein (from UniProt P01860 1-377; O08603 29-229)
NK cell-mediated killing (direct lysis, KY-2 effector cells): 15 to 59%
